Experimental findings from publication PMC8622885 are described below.

The experiment addresses thermostable exoshell (tES) (Archaeoglobus fulgidus) (UniProt O29424). Nature of the experiment: AUC; unpublished observations; no conditions given.
UniProt O29424, sequence (O29424 entry or part of it): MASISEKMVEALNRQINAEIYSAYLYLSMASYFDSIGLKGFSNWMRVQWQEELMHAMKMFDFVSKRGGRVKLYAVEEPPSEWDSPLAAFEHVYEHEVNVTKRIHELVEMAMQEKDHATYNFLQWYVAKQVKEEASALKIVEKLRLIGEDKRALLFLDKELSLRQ

For “horseradish peroxidase (HRP) (from UniProt P00433 31-338) (enzyme)”, the stoichiometry N (HRP molecules per tES) stood at 2.
